# Reference: patent publication US20240390422A1 (QUELL THERAPEUTICS, published 2024)
# B1: construct 8 (anti-TREM2 CAR comprising a TREM2 scFv) (other)
# chain: QVQLVQSGAEVKKPGASVKVSCKASGYTFTGYHMSWVRQAPGQGLEWMGVINPVSGNTVYAQKFQGRVTMTRDTSISTAYMELSRLRSEDTAVYYCARIPSYTYAFDYWGQGTLVTVSSGGGGSGGGGSGGGGSDIQMTQSPSSLSASVGDRVTITCRASQDISNYLAWYQQKPGKAPKLLIYRASSLQSGVPSRFSGSGSGTDFTLTISSLQPEDFATYYCQQHGHSPTTFGQGTKVEIKLRVFSSVVPVLQKVNSTTTKPVLRTPSPVHPTGTSQPQRPEDCRPRGSVKGTGLDFACDIYIWAPLAGICVALLLSLIITLICYHRQLWTNSRRNRLLQSDYMNMTPRRPGLTRKPYQPYAPARDFAAYRPRAKFSRSAETAANLQDPNQLYNELNLGRREEYDVLEKKRARDPEMGGKQQRRRNPQEGVYNALQKDKMAEAYSEIGTKGERRRGKGHDGLYQGLSTATKDTYDALHMQTLAPR
# notes: the construct also encodes GFP
# B2: construct 7 (anti-TREM2 CAR comprising a TREM2 scFv) (other)
# chain: QVQLQQSGPGLVKPSQTLSLTCAISGDSVSSSSAAWNWIRQSPSRGLEWLGHIGYRSKWYNEYAVSVKSRITINPDTSKNQFSLQLNSVTPEDTAVYYCARGMYGSVPYKEGYYFDIWGQGTLVTVSSGGGGSGGGGSGGGGSDIQMTQSPSSLSASVGDRVTITCRASQGISSDLNWYQQKPGKAPKLLIYAASNLQSGVPSRFSGSGSGTDFTLTISSLQPEDFATYYCQQYTDESMTFGQGTKVEIKLRVFSSVVPVLQKVNSTTTKPVLRTPSPVHPTGTSQPQRPEDCRPRGSVKGTGLDFACDIYIWAPLAGICVALLLSLIITLICYHRQLWTNSRRNRLLQSDYMNMTPRRPGLTRKPYQPYAPARDFAAYRPRAKFSRSAETAANLQDPNQLYNELNLGRREEYDVLEKKRARDPEMGGKQQRRRNPQEGVYNALQKDKMAEAYSEIGTKGERRRGKGHDGLYQGLSTATKDTYDALHMQTLAPR
# notes: Chimeric antigen receptor with an anti-TREM2 scFv, expressed on the surface of Jurkat NFAT cells or murine Tregs after retroviral transduction; the construct also encodes GFP
# B3: construct 10 (anti-TREM2 CAR comprising a TREM2 scFv) (other)
# chain: EVQLLESGGGLVQPGGSLRLSCAASGFTFSNYYMAWVRQAPGKGLEWVSSLTNSGGSTYYADSVKGRFTISRDNSKNTLYLQMNSLRAEDTAVYYCTREWAGSGYFDYWGQGTLVTVSSGGGGSGGGGSGGGGSDIQMTQSPSSLSASVGDRVTMTCKASQNVGNNLAWYQQKPGKAPKLLLYYTSNRFTGVPSRFSGSGSGTDFTLTISSVQPEDFATYYCQRIYNSPWTFGQGTKLELKLRVFSSVVPVLQKVNSTTTKPVLRTPSPVHPTGTSQPQRPEDCRPRGSVKGTGLDFACDIYIWAPLAGICVALLLSLIITLICYHRQLWTNSRRNRLLQSDYMNMTPRRPGLTRKPYQPYAPARDFAAYRPRAKFSRSAETAANLQDPNQLYNELNLGRREEYDVLEKKRARDPEMGGKQQRRRNPQEGVYNALQKDKMAEAYSEIGTKGERRRGKGHDGLYQGLSTATKDTYDALHMQTLAPR
# notes: as for B2
# B4: construct 3 (anti-TREM2 CAR comprising a TREM2 scFv) (other)
# chain: EVQLVQSGAEVKKPGESLKISCKGSGYTFTSYWIGWVRQMPGKGLEWMGIIYPGDSDTRYSPSFQGQVTISVDKSSSTAYLQWSSLKASDTAIYYCTRQAIAVTGLGGFDPWGQGTLVTVSSGGGGSGGGGSGGGGSEIVLTQSPGTLSLSPGERATLSCRASQSVSSSYLAWYQQKPGQAPRLLIYGASSRATGIPDRFSGSGSGTDFTLTISRLEPEDFALYYCQQYDTSPFTFGPGTKVDIKLRVFSSVVPVLQKVNSTTTKPVLRTPSPVHPTGTSQPQRPEDCRPRGSVKGTGLDFACDIYIWAPLAGICVALLLSLIITLICYHRQLWTNSRRNRLLQSDYMNMTPRRPGLTRKPYQPYAPARDFAAYRPRAKFSRSAETAANLQDPNQLYNELNLGRREEYDVLEKKRARDPEMGGKQQRRRNPQEGVYNALQKDKMAEAYSEIGTKGERRRGKGHDGLYQGLSTATKDTYDALHMQTLAPR
# notes: as for B2
# Target: T1, Biotinylated Human TREM2 Protein,His,Avitag (TR2-H82E7, ACRObiosystems) (human, UniProt Q9NZC2 19-174, biotinylated (Avitag))
# T1 construct: Bought protein; also called huTREM2,Biotin,His,Avitag; Biotinylated human TREM2 protein with a streptavidin tag; not shown: His tag and Avitag
# T1 sequence (looked up): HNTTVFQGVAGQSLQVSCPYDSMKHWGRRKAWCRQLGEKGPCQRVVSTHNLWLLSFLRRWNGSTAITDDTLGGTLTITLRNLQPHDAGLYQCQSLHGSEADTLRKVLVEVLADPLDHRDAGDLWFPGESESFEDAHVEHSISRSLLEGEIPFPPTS
# Experiment: flow cytometry: CAR-transduced Jurkat NFAT cells stained with Biotinylated Human TREM2 Protein and Streptavidin APC; also sorted with the protein and streptavidin beads
# Excerpt: Constructs 3, 7, 8 and 10 are all constructs of the present invention, which comprise a CAR comprising a TREM2 scFv. Non-transduced cells (mock) and transduced cells were collected and stained for flow cytometry using Biotinylated Human TREM2 Protein (TR2-H82E7 ACRObiosystems) and Streptavidin APC as a secondary antibody. Cells were sorted using Streptavidin magnetic beads, columns (miltenyi) and Biotinylated Human TREM2 Protein (TR2-H82E7 ACRObiosystems).
# On day 4 after transduction, Jurkat NFAT cells were stained for surface expression of the anti-TREM2 CARs using Biotinylated Human TREM2 Protein (TR2-H82E7 ACRObiosystems) and Streptavidin-APC as a secondary antibody. On day 7, CAR expressing cells were selected using Streptavidin magnetic beads (Streptavidin MicroBeads, 130-048-101, Miltenyi), columns (Miltenyi) and Biotinylated Human TREM2 Protein (TR2-H82E7 ACRObiosystems) and then used for subsequent activation assays.
row,Binder,binding result
1,B1,binds
2,B2,binds
3,B3,binds
4,B4,binds
